Where two headings read alike, the source gives them in different places.

Test [1] concerns the target EBOV Mayinga (GenBank: NC_002549) (Zaire Ebolavirus (EBOV Mayinga)) (UniProt Q05320). Kind of test: cell-based or functional assay.
For test [2] the target is unchanged. Briefly: cell-based or functional assay. The source holds these as a separate data set.

Sequence of UniProt Q05320 (Q05320 33-676 limits assumed): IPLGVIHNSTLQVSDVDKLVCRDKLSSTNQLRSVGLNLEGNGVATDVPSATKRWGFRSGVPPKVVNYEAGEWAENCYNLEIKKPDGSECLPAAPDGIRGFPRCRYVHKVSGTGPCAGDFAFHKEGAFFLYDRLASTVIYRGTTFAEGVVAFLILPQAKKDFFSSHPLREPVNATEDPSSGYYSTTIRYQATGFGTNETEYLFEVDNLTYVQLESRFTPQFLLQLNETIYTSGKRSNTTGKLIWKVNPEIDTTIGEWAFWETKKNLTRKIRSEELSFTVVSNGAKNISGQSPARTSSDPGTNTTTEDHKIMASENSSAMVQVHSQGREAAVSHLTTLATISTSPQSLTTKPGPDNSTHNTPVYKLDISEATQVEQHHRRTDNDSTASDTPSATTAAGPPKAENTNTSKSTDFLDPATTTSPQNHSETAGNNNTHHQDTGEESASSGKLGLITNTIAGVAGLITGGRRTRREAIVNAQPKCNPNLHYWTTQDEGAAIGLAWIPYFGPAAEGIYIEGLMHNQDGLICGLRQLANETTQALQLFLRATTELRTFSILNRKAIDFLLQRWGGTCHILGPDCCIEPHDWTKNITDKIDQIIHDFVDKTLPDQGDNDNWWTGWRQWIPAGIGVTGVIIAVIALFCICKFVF

On to mAb114 (antibody), for which the neutralization concentration (GMC, CPE reduction on Vero C1008 cells) in test [1] came to 0.744 µg/mL.

B1: 3T0123 (antibody, V domains shown)
VH: QVQLVQSGSEVKKPGASVKVSCQASGYRFANYGISWVRQAPGQGLEWMGWISPLKRDPDYAQNFQGRVTMSRDTSTNTAYMELRGLTSGDTAVYFCARGLGDSYSNAWFVYVFDYWGQGSPVTVSS
VL: EIVMTQSPATLSVSPGERVTLSCRTSQRIHTNLAWYQQKSGQAPRLVMYDAFTRAPGVPARFSGGGSETEFTLTISSLQSEDFALYYCQQYSQRPTFGLGTKLEIK
For B1, in test [2], the neutralization concentration (GMC, CPE reduction on Vero C1008 cells) worked out at 0.52 µg/mL.

For the origin of these results see US20240075139A1.
